Experimental data: patent US20260242478A1 (published 2026)

B1: Phage-1585 (peptide)
peptide: TCAAGASWNWPACE
notes: Read from the row with '-' = Peptide-92 residue: TCAAGASWNWPACE; also called Peptide-92 library clone

Experiments:
[1] = target: Anti-CD28 Fab (SEQ ID NOs: 696, 697); test: phage binding ELISA; Fab-coated wells pre-incubated with saturating CD28 antigen as competitor, anti-M13 HRP detection
Target sequence in this assay (VH, as listed by the source, chain 1 of 2): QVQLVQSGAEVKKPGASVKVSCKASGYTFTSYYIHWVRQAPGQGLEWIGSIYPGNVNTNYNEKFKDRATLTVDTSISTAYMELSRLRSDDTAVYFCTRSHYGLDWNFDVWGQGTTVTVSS
Target sequence in this assay (VL, as listed by the source, chain 2 of 2): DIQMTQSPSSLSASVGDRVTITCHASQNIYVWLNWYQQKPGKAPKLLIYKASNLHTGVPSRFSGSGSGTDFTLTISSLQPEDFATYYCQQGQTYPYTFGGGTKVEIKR
Method: (§1) Clonal phage were harvested as crude supematants and screened via standard ELISAs. […] Prior to the addition of clonal phage, wells were incubated with blocking buffer and CD28 antigen or blocking buffer alone. Without washing or aspirating, clonal phage supematants were then added to the wells and incubated for a short time. Wells were then washed followed by detection of bound phage using a horse radish conjugated anti-M13 antibody.

[2] = target: Anti-CD28 Fab (SEQ ID NOs: 696, 697); test: phage binding ELISA; biotinylated anti-CD28 Fab on neutravidin plate, clonal phage supernatant, anti-M13 HRP detection;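 also: wells pretreated with blocking buffer, either plus or minus CD28 antigen, then given crude phage supernatant briefly without washing in between, then washed before anti-M13 HRP readout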
Target sequence in this assay (VH, as listed by the source, chain 1 of 2): as the sequence (VH, as listed by the source, chain 1 of 2) above
Target sequence in this assay (VL, as listed by the source, chain 2 of 2): as the sequence (VL, as listed by the source, chain 2 of 2) above
Method: as §1

[3] = target: T1, Anti-CD28 Fab (SEQ ID NOs: 696, 697); test: phage binding ELISA; Fab-coated wells pre-incubated with CD28 antigen as competitor, phage detected with anti-M13-HRP
T1 construct: In the phage ELISA the Fab was biotinylated and captured on neutravidin coated plates
T1 sequence (VH, as listed by the source, chain 1 of 2): as the sequence (VH, as listed by the source, chain 1 of 2) above
T1 sequence (VL, as listed by the source, chain 2 of 2): as the sequence (VL, as listed by the source, chain 2 of 2) above
Method: (§2) Clonal phage were harvested as crude supematants and screened via standard ELISAs. […] Prior to the addition of clonal phage, wells were incubated with blocking buffer and CD28 antigen or blocking buffer alone. Without washing or aspirating, clonal phage supematants were then added to the wells and incubated for a short time. Wells were then washed followed by detection of bound phage using a horse radish conjugated anti-M13 antibody. Clonal phage of interest were then sent for sequence analysis.

[4] = target: T1, Anti-CD28 Fab (SEQ ID NOs: 696, 697); test: phage binding ELISA; biotinylated anti-CD28 Fab on neutravidin plate, clonal phage detected with anti-M13-HRP;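 also: crude clonal phage supernatants added briefly to wells preincubated in blocking buffer with or without CD28 antigen, then washed before detection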
[5] = target: T2, Anti-CD28 Fab (SEQ ID NOs: 696, 697); test: phage binding ELISA; biotinylated anti-CD28 Fab on neutravidin plate, bound phage detected with anti-M13-HRP;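 also: clonal phage tested as crude supernatants, given a short incubation in the Fab-captured wells before bound phage were read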
T2 construct: Biotinylated and captured on neutravidin coated plates in the phage ELISA
T2 sequence (VH, as listed by the source, chain 1 of 2): as the sequence (VH, as listed by the source, chain 1 of 2) above
T2 sequence (VL, as listed by the source, chain 2 of 2): as the sequence (VL, as listed by the source, chain 2 of 2) above
Method: as §2

[6] = target: T2, Anti-CD28 Fab (SEQ ID NOs: 696, 697); test: phage binding ELISA on captured anti-CD28 Fab; competitor: CD28 antigen pre-incubated in the well;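 also: clonal phage supernatants added briefly to wells preblocked with or without CD28, bound phage detected through an HRP-linked anti-M13 antibody, wells with blocking buffer alone as comparison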
Method: as §2

Binder | Anti-CD28 Fab signal in the presence of CD28 [1] | Anti-CD28 Fab (SEQ ID NOs: 696, 697) signal [2] | Anti-CD28 Fab signal in the presence of CD28 [3] | Anti-CD28 Fab (SEQ ID NOs: 696, 697) signal [4] | also measured
B1 | 0.07 | 1.41 |  |  | 
WCAAFFHYPWPQCF (Peptide-92 library clone) [Phage-1679] |  |  | 0.05 | 0.87 | 
TCAAGASWDWPFCF (Peptide-92 library clone) [Phage-1684] |  |  | 0.08 | 0.82 | 
PCAAGAMWPWPVCL (also called Peptide-92 library clone) [Phage-1583] | 0.06 | 1.41 |  |  | 
TCAAGATYEWPSCI (Peptide-92 library clone) [Phage-1681] |  |  | 0.09 | 0.86 | 
TCSAGATYSWPACL (also called Peptide-92 library clone) [Phage-1584] | 0.06 | 1.41 |  |  | 
LCAAGFMYEWPLCF (also called Peptide-92 library clone) [Phage-1590] | 0.06 | 1.4 |  |  | 
PCSAGVTYAWLYCV (also called Peptide-92 library clone) [Phage-1587] | 0.06 | 1.41 |  |  | 
LCAEGADYPWPMCL (tested as crude phage supernatant) [Phage-1545] |  |  |  |  | Anti-CD28 Fab (SEQ ID NOs: 696, 697) signal [5]: 1.51; Anti-CD28 Fab signal in the presence of CD28 [6]: 0.08
TCAAGAKYVWPLCF (Peptide-92 library clone) [Phage-1682] |  |  | 0.12 | 0.85 | 
TCSAGAMYNWPECF (Peptide-92 library clone) [Phage-1676] |  |  | 0.08 | 0.92 | 
TCAAGAQFAWPLCL (also called Peptide-92 library clone) [Phage-1579] | 0.07 | 1.41 |  |  | 
RCKAGVPYKWPMCL (Peptide-92 library clone) [Phage-1680] |  |  | 0.06 | 0.87 | 
MCAAGAAWAWPLCL (also called Peptide-92 library clone) [Phage-1588] | 0.07 | 1.4 |  |  | 
LCEAGFNYDWPRCL (Peptide-92 library clone) [Phage-1683] |  |  | 0.07 | 0.85 | 
TCAAGATWDWPLCF (tested as crude phage supernatant) [Phage-1546] |  |  |  |  | Anti-CD28 Fab (SEQ ID NOs: 696, 697) signal [5]: 1.51; Anti-CD28 Fab signal in the presence of CD28 [6]: 0.06

Binder | Anti-CD28 Fab signal in the presence of CD28 [1] | Anti-CD28 Fab (SEQ ID NOs: 696, 697) signal [2] | Anti-CD28 Fab signal in the presence of CD28 [3] | Anti-CD28 Fab (SEQ ID NOs: 696, 697) signal [4] | also measured
RCSFRFITLAEACV (also called Peptide-92 library clone) [Phage-1577] | 0.08 | 1.41 |  |  | 
TCAAGASYPWPLCV (also called Peptide-92 library clone) [Phage-1589] | 0.06 | 1.4 |  |  | 
SCAAGATYKWPACF (Peptide-92 library clone) [Phage-1687] |  |  | 0.06 | 0.8 | 
WCSAVFSYQWPPCF (Peptide-92 library clone) [Phage-1689] |  |  | 0.06 | 0.78 | 
SCSAGAMWLWPECF (Peptide-92 library clone) [Phage-1688] |  |  | 0.06 | 0.8 | 
RCAAGFHYSWPNCF (also called Peptide-92 library clone) [Phage-1581] | 0.06 | 1.41 |  |  | 
ECGWEPGQHWRVCF (Peptide-92 library clone) [Phage-1685] |  |  | 0.06 | 0.82 | 
SCSAGASLQLSQCF (also called Peptide-92 library clone) [Phage-1576] | 0.05 | 1.41 |  |  | 
LCSAGFLFQWSTCL (also called Peptide-92 library clone) [Phage-1580] | 0.06 | 1.41 |  |  | 
SCAAGATYEWPTCL (Peptide-92 library clone) [Phage-1686] |  |  | 0.07 | 0.81 | 
TCSAGAMYSWPLCI (Peptide-92 library clone) [Phage-1677] |  |  | 0.08 | 0.91 | 
QCAAGFSYTWPECY (Peptide-92 library clone) [Phage-1678] |  |  | 0.11 | 0.9 | 
LCAAGAHYSWPACF (also called Peptide-92 library clone) [Phage-1586] | 0.09 | 1.41 |  |  | 
TCSAGAHYPWPICL (also called Peptide-92 library clone) [Phage-1578] | 0.08 | 1.41 |  |  | 
GCAAGASYPWPACL (also called Peptide-92 library clone) [Phage-1582] | 0.06 | 1.41 |  |  | 
TCAAGATWVWPTCF (Peptide-92 library clone) [Phage-1675] |  |  | 0.07 | 0.92 | 
